The values below come from paper PMC7935256.

Experiment [1] concerns the target human monoclonal antibody (HMAb) 1C19, IgG (human). Put plainly: BLI. (Biolayer interferometry detects binding as a change in optical thickness at a sensor tip.)
In experiment [2] the target is DENV1 PVP159 strain recombinant E protein ectodomain (residues 1-394) (dengue virus serotype 1, strain PVP159). The experiment is described as follows: dynamic light scattering; recombinant E proteins in 20 mM Tris pH 8.0, 200 mM NaCl, 0.025% Tween-20.
Experiment [3] deals with DENV1 WestPac74 strain recombinant E protein ectodomain (residues 1-394) (dengue virus serotype 1, strain WestPac 74). The description is as above.
Experiment [4] addresses DENV2 NGC strain recombinant E protein ectodomain (residues 1-394) (dengue virus serotype 2, strain NGC). The experiment is described as above.
For experiment [5], the target named is DENV2 PVP94/07 strain recombinant E protein ectodomain (residues 1-394) (dengue virus serotype 2, strain PVP94/07). The description is as above.
The target in experiment [6] is E protein on DENV1 strain WestPac 74 virus particles (dengue virus serotype 1, strain WestPac 74). Put plainly: cryo-EM structure.

Sequence of human monoclonal antibody (HMAb) 1C19, IgG (human) (heavy, as listed by the source, chain 1 of 2): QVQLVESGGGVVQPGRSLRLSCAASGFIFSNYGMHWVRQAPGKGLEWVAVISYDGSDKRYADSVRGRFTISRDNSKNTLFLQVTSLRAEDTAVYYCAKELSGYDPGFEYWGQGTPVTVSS
Sequence of human monoclonal antibody (HMAb) 1C19, IgG (human) (light, as listed by the source, chain 2 of 2): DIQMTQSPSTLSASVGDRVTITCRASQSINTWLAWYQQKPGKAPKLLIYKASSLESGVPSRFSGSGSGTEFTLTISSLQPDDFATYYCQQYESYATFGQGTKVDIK

For the substance “DENV1 PVP159 strain recombinant E protein ectodomain (residues 1-394) (domain or fragment)”, in experiment [1], the Kd (as a rule, a measure of binding affinity in units of concentration) was 0.712 nM. Moreover, in experiment [2], the stoichiometry N – broadly, the number of molecules, sites or subunits per partner or assembly – stood at 2.
“DENV1 WestPac74 strain recombinant E protein ectodomain (residues 1-394) (domain or fragment)”: the stoichiometry N in experiment [3] is 2.
Take “DENV2 NGC strain recombinant E protein ectodomain (residues 1-394) (domain or fragment)”: in experiment [4], the stoichiometry N came to 2.
In the case of “DENV2 PVP94/07 strain recombinant E protein ectodomain (residues 1-394) (domain or fragment)”, the stoichiometry N in experiment [5] is 2.
In the case of Fab 1C19, in experiment [6], the copies of Fab bound per virus particle (180 E proteins), Class I was found to be 60 copies and the copies of Fab bound per virus particle (180 E proteins), Class II is 60 copies.
